Results published in patent US20200190171A1 (FAIRBANKS PHARMACEUTICALS, published 2020).

Legend:
mouse FSTL3 = biological target: T1, mouse FSTL3 (mouse, UniProt Q9EQC7 24-256, limits assumed); test: Western blot
T1 construct: also called mFSTL3
T1 sequence (looked up): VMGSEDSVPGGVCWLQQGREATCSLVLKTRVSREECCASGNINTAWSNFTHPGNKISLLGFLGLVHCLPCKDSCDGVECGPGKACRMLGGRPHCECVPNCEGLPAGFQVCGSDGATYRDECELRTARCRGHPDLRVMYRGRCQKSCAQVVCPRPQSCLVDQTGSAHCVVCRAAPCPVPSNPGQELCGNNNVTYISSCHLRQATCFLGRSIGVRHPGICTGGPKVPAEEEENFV
Description: (§1) Secondary antibody (donkey anti-mouse IgG-Horse Radish Peroxidase label) was purchased from Jackson Immuno Research in West Grove Pa. Human FSTL3 was produced by Fairbanks Pharmaceuticals by cloning the human FSTL3 cDNA into an expression plasmid containing a 6-His tag. 293 cells were transfected with this plasmid and stable colonies selected. Cells were grown for 7-14 days, medium collected, and FSTL3 was purified on Nickel-Sepharose-Sephadex Beads (GE Healthcare Life Sciences, Pittsburgh Pa. Ligands: activin A (Cat No:338-AC-050), activin B (Cat No:659-AB-005), and MSTN (Cat No:788-68-010) were purchased from R&D Systems (Minneapolis, Minn.). GDF11 (Cat No:TP723130), was purchased from Origene (Rockville Md.)
(§2) Direct binding studies were conducted by performing Western blot, a technique well known in the art. Pre-determined doses of human FSTL3 (hFSTL3) or mouse FSTL3 (mFSTL3), that are easily detectable at the end of experimentation, were loaded onto SDS gels (10% NuPage gels). After electrophoresis, proteins were transferred to PVDF membranes and then tested with the selected and purified anti-hFSTL3 antibodies from FIG. 3.

[1] = biological target: T2, human Follistatin-like-3 (FSTL3) protein, 6-His tagged (human, UniProt O95633 27-263, limits assumed); test: Western blot
T2 construct: Made in-house as a secreted protein from stably transfected 293 cells; also called hFSTL3; human FSTL3; not shown: 6-His tag
T2 sequence (looked up): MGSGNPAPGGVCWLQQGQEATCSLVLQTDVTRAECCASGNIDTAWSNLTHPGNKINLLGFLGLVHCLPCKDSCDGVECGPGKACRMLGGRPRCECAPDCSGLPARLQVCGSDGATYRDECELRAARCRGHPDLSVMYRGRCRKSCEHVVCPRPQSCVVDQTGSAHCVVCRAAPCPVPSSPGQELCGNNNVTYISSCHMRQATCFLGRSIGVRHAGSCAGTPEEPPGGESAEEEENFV
Description: as §1, §2

binding result (mouse FSTL3): binds | binding result [1]: binds
B1: FP-102 anti-hFSTL3 monoclonal antibody (antibody, V domains shown)
VH: QVKLQQPGAELVKPGASVKLSCKASGYTFTSYWMHWVNQRPGQGLEWIGEINPGNGRTNYNEKFKSKATLTVDKSSSTAYMQLSSLTSEDSAVYFCARWLLPRGPMDYWGQGTSVTVSS
VL: DIVLTQSQKFMSTSVGDRVSVTCKASQNVGTNVAWYQQKPGQSPQGLIYSASYRYSGVPDRFTGSGSGTDFTLTISNVQSEDLAEYFCQQYNSYPLTFGAGTKLELKR
notes: Murine monoclonal from Balb-C mice; also called clone 33
